Consider 18 sequences from the DeepSol protein solubility set.

A short description of this data set: soluble on expression in E. coli; label from the status in PepcDB or PDB records.
With “MGSDKIHHHHHHMFHPIEEALDALKKGEVIIVVDDEDRENEGDFVALAEHATPEVINFMATHGRGLICTPLSEEIADRLDLHPMVEHNTDSHHTAFTVSIDHRETKTGISAQERSFTVQALLDSKSVPSDFQRPGHIFPLIAKKGGVLKRAGHTEAAVDLAEACGSPGAGVICEIMNEDGTMARVPELIEIAKKHQLKMITIKDLIQYRYNLTTLVEREVDITLPTDFGTFKVYGYTNEVDGKEHVAFVMGDVPFGEEPVLVRVHSECLTGDVFGSHRCDCGPQLHAALNQIAAEGRGVLLYLRQEGRGIGLINKLKAYKLQEQGYDTVEANEALGFLPDLRNYGIGAQILRDLGVRNMKLLTNNPRKIAGLEGYGLSISERVPLQMEAKEHNKKYLQTKMNKLGHLLHF”, the “soluble on expression in E. coli” value is given as “not soluble”. With “AIAETEIHVPVGSPTIRKFQIFVDEHNVTEGAMKLIKELRPGWDPNLIRTKLFTDGTTNKLVGCYVEDCVEDVVLVRVYGNKTELIVDRDNELKSFQVLHANGCAPRLYCTFQNGICYEFMQGRALDTQDVRDPVLLRLIAREMARIHAIHAHNGCIPKPNLWIKMRKYFSLVATEFTEQASNIRIQQEVPSQEVLEQEMMWMKEHLSQLGSPVVLCHNDLLCKNIIHNAKEGHVRFIDYEYSSYNYQAFDIGNHFNEFAGMSEPDYNLYPSREMQLDWLQTYLQAYKLFTKKGEDVSERELETLYVQVNKFALASHFFWGFWALIQAKYSTIEFDFLGYAVLRFNQYFKTKPAVMALEIPK” the entry was “soluble”; with “SEDHQHVPIDIQTSKLLDWLVDRRHCSLKWQSLVLTIREKINAAIQDMPESEEIAQLLSGSYIHYFHCLRILDLLKGTEASTKNIFGRYSSQRMKDWQEIIALYEKDNTYLVELSSLLVRNVNYEIPSLKKQIAKCQQLQQEYSRKEEECQAGAAEMREQFYHSCKQYGITGENVRGELLALVKDLPSQLAEIGAAAQQSLGEAIDVYQASVGFVCESPTEQVLPMLRFVQKRGNSTVYEWRTGTEPSVVERPHLEELPEQVAEDAIDWGDFGVEAVSEGTDSGISAEAAGIDWGIFPESDSKDPGGDGIDWGDDAVALQITVLEAGTQAPEGVARGPDALTLLEYTETRNQFLDELMELEIFLAQRAVELSEEADVLSVSQFQLAPAILQGQTKEKMVTMVSVLEDLIGKLTSLQLQHLFMILASPRYVDRVTEFLQQKLKQSQLLALKKELMVQKQQEALEEQAALEPKLDLLLEKTKELQKLIEADISKRYSGRPVNLMGTSL”, “soluble”; with “MTGYPDVAAFDLDYTIWPCYCDTHLHGPFKPVKSSNGEVLTIICRDGYELTIYKDIPRILGDLKDNGVKLMTASRTWAPEIAQEILKIFKVKYAGVVTPLANLFDEFQWGERSKIGHLRDGLKDLYNTSDLKSKKICLFDDESRNKEVEKYGVKFVYVRDPENGPSWKLYQDYLSGKV”, “not soluble”. For “SLKEVLESKLNDRPDANVLIGLGRNISGEAVLAELNKMPHLLVAGATGSGKSVCVNGIITSILMRAKPHEVKMMMIDPKMVELNVYNGIPHLLAPVVTDPKKASQALKKVVNEMERRYELFSHTGTRNIEGYNDYIKRANNEEGAKQPELPYIVVIVDELADLMMVASSDVEDSITRLSQMARAAGIHLIIATQRPSV”, the “soluble on expression in E. coli” value is on record as “not soluble”. With “MKLWSGGIQRDQNADSTVAFVKRDIEAEIYLMKYEILSLIAYHLDLAQRRLITEAESKCIINSLISLLQDSPKIDPEQEDAHTAVENAVIERCGDMGRNVRLFLSRNEQVHANVLMFTIERCHSIISILLDSIKVLKGADLKGLLPGTTHFMPAMPVTAATYSNYIENSLALAIRSIDRSLADASVLPYGYGSGYGSPNSGKLKVMSEMLGIGPVLKNPMIASSLYQFTIMQISNSIAGLSITLSRIAMDLIEYYRDGYVSLSDEFTTGSSLMPNKRNPDYLELLQGMAAVSSSVAVMSAMATMNKTSGYHRDFQMLKDSYIDMLNYIEEALLRLPDLFKGLRFEITDPMMLPGSIFATGNAWEDFANTHDWKQSYANIGRKIREKQDLKRYMPEDYVDIVEMHYLEEIEKKYGEILKKWDYLIEKAEAYISE” the entry was “soluble”.

With “MEQSFTADINEINITNGKLDFSDSSLTPKFSAGIYSLNGDITGLSSNEDSRAKIDLKGKVDKYAPVIIKGSVNPLSHDAFTDIDMLFNGIELTTFTPYSGKFAGYAIDKGKLSLGLNYKLSNNKLVAENNVTLDQLTLGEVVNSEEATSLPIKFALSLLKDSDGLEHHHHHH”, the “soluble on expression in E. coli” value is recorded as “soluble”.

In the case of “MGIVSAASLIKVINEKQLKMAQDQNPLTALPGNRAIGGFIADSCSDGDETRFFCYCDFDNFKPFNDKYGFNAGDHAITLFSALMRRYFFAGDCFLGHIGGDDFFIGVRDWSVEELMEILERLLSDFHDDVAGLYSDEDRAAGCMKGQDRNGLEHHHHHH”, the “soluble on expression in E. coli” value is “soluble”. The value for “MELKKRSEFPENELWDLTALYKDRQDFLLAIEKALQDIDLFKRNYEGRLTSVDDFTQALIEIEHIYIQMSHIGTYAFMPQTTDFSDESFAQIAQAGDDFMTKASVALSFFDTALANADLDVLDTLEKNPYFSAAIRMAKIQKEHLLSPDVEKALANLREVINAPYDIYTKMRAGDFDMDDFEVDGKTYKNSFVSYENFYQNHENAEIREKAFRSFSKGLRKHQNTAAAAYLAKVKSEKLLADMKGYASVFDYLLAEQEVDRSLFDRQIDLIMTEFGPVAQKFLKHVAQVNGLEKMTFADWKLDIDNDLNPEVSIDGAYDLVMKSLAPLGQEYTKEIERYQTERWVDFAANANKDSGGYAADPYKVHPYVLMSWTGRMSDVYTLIHEIGHSGQFIFSDNHQSYFNTHMSTYYVEAPSTFNELMLSDYLEHQFDDPRQKRFALAHRLTDTYFHNFITHLLEAAFQRKVYTLIEEGGTFGADQLNAMMKEVLTDFWGDAVDIDDDAALTWMRQAHYYMGLYSYTYSAGLVISTAGYLNLKHNPNGAKEWLDFLKSGGSRTPLDTAMLIGADIATEKPLRDTIQFLSDTVDQIISYTEDMSHA” was “soluble”; that for “MRHVISVLVQDHPRVLNRITGLFARRGFNLESLAVGTTHQPGLSRICLVVSGDDRTLEQVEKQLNRLIEVLKVTDHTEPHVERELCLVKVHVAGLEERLAVKDIQEAFRARVVDVAQKSLILELTGDTQKVNSFIEALRPYGILEVMRTGAVAMSRGDRVLKVREKKEAV” was “soluble”; that for “MPYLLEMKNITKTFGSVKAIDNVCLRLNAGEIVSLCGENGSGKSTLMKVLCGIYPHGSYEGEIIFAGEEIQASHIRDTERKGIAIIHQELALVKELTVLENIFLGNEITHNGIMDYDLMTLRCQKLLAQVSLSISPDTRVGDLGLGQQQLVEIAKALNKQVRLLILDEPTASLTEQETSILLDIIRDLQQHGIACIYISHKLNEVKAISDTICVIRDGQHIGTRDAAGMSEDDIITMMVGRELTALYPNEPHTTGDEILRIEHLTAWHPVNRHIKRVNDVSFSLKRGEILGIAGLVGAGRTETIQCLFGVWPGQWEGKIYIDGKQVDIRNCQQAIAQGIAMVPEDRKRDGIVPVMAVGKNITLAALNKFTGGISQLDDAAEQKCILESIQQLKVKTSSPDLAIGRLSGGNQQKAILARCLLLNPRILILDEPTRGIDIGAKYEIYKLINQLVQQGIAVIVISSELPEVLGLSDRVLVMHEGKLKANLINHNLTQEQVMEAALRSEHHVEKQSV” was “not soluble”. With “MANECRSLRNMETDGFQVVTEVVTHKLNHIPIFKGDFASLSPKVQRFVAEKAELMNPAGIYICDGSQKEYDDIVDKLVERGVLTPLKAYENNYLCRTDPRDVARVESKTWMVTKDKYDSVCHTPDGVRPIMGQWMSEEQFGVELDSRFPGCMAGRPMYVVPYSMGPIGGPLSKNGIELTDSPYVVLCMRTMTRMGTKVLEALGDNDFVRCIHSVGLPRPVKQKVINHWPCNPEKVMIAHRPKEREIWSFGSGYGGNSILGKKCFALRIACNIGRDEGWLAEHMLIMGVTNPEGEEKFIAAAFPSACGKTNLAMLTPTVPGWKVRVVGDDIAWMKFGADGRLYAINPEAGFFGVAPGTSHKTNAMAMESCRANTIFTNVAETADGEYFWEGLEKELKEAKGYTDEQLKHLEITNWLGERWHIGDEGKAAHPNSRFTAPAKQCPNIHPDWEAPQGVPIDAIVFGGRRPEGVPLVFESFSWEHGILVGALVKSETTAAAEFTGKNVMHDPMAMRPFMGYNYGKYLEHWIKLGKAPHKAPKIFHVNWFRETKDHKFLWPGFGDNIRVLDWILRRVAGGEEEIAIETAIGYVPKRGTINLDGLPRIDWNDLMSIPKDYWVEDVDESRHFLDTQVGSDLPQPIRDELDKLEKRVHAL” the entry was “not soluble”; with “KGNEFEDYCLKRELLMGIFEMGWEKPSPIQEESIPIALSGRDILARAKNGTGKSGAYLIPLLERLDLKKDNIQAMVIVPTRELALQVSQICIQVSKHMGGAKVMATTGGTNLRDDIMRLDDTVHVVIATPGRILDLIKKGVAKVDHVQMIVLDEADKLLSQDFVQIMEDIILTLPKNRQILLYSATFPLSVQKFMNSHLEKPYEIN”, “soluble”.

On to “VSKDRLYFRQLLSGRDFAVGDMFATQMRNFAYLIGDRTTGDCVVVDPAYAAGDLLDALESDDMQLSGVLVTHHHPDHVGGSMMGFQLPGLAELLERASVPVHVNTHEALWVSRVTGIPVGDLITHEHGDKVSVGDIDIELLHTPGHTPGSQCFLLDGRLVAGDTLFLEGCGRTDFPGGDSDEMYRSLRQLAELPGDPTVFPGHWYSAEPSASLSEVKRSNYVYRPASLDQWRMLMGG”, for which the “soluble on expression in E. coli” value was “not soluble”. With “MTSTRHHRGARRALRHLTTTTAHARRAFSPADLRQLEAAVREGERRHRGEVRIVIEASLPVRDAWAGVTPRQRARTLFGLLEVWNTHEHVGVLLYLNLADHAVEILADRGIAARVEPHAWRAICETITHGFAQGVAIGPVLEALGQIHAVLAAHFPSDGAPRANELADKPLVLLEHHHHHH” the entry was “soluble”.

Take “MPERYTGSDGKTYLFKGWYKGNAKPSTLETTKTPSYAVTYDDNDDLHVVYEEAVMKTYTLPAREALFGYVDEQGNLINPAKFKLSATMGESDGATGEMTTFPTIDGIDMPASQLKKLAIPQKVYTRPDDGTIVTYGPQEVSVEIPKYYQTISISPTTAYTGDKTKYPVPNEVRRGIENPDNIVSSLVGTTAYNLTQKSATRYTARRSYWTWGPTKTLYSMSIYSGTAGGNYNLSTPDGTIYYYLENRRVTEHFVDESGAKITPPTGFTQGNQLVVDSENYVYTVAKALPKIYQAGEKTYIFQGWFKGKTKPATLKTTTTPSFTPTFNDEDDMTAVYQEAIPTAELTLTGAVDIIENGATMDYWEALLKNTGEAPLTTIKIKPTATWAAGIGAPNTIFVQGTGQNTKAFPVTKEQWTTGAGVSITLDQPLPAGGQLKMNLLGTAVTGNPGQVLTADVEVTGNFGSLTAKDTVRIKDLDQEITSPDGDGFISTPTFDFGKLAISGSKQQYGLKKAADYYGNGTRNPYLRLNTSQANWSLTAQLSQPKSATDSLPTTTRLLLGTAAAASFTDYNQPTETRTPLGKTSTVTLTADNTATAVVANQQFTGSDVYQLDFTFANIKLEVPANQGMAGQQYQAAVTWNLVTGP”: the “soluble on expression in E. coli” value is reported as “not soluble”. With “MKLALTLEADSVNVQALNMGRIVVDVDGVNLSELINKVSENGYSLRVVDKSDQHATSTPPPLTTLTCIRCSTAHITETDNAWLYSLSHQTNDDGETEWIHFTGSGYLLRTDAWSYPVLRLKRLGLSRTFRRLVVTLTRRYGVSLIHLDAGAECLPGFPTFDW” the entry was “not soluble”. With “MSTLKIAPSILAADYANFASELARIEETDAEYVHIDIMDGQFVPNISFGADVVASMRKHSKLVFDCHLMVVDPERYVEAFAQAGADIMTIHTESTRHIHGALQKIKAAGMKAGVVINPGTPATALEPLLDLVDQVLIMTVNPGFGGQAFIPECLEKVATVAKWRDEKGLSFDIEVDGGVDNKTIRACYEAGANVFVAGSYLFKASDLVSQVQTLRTALNV” the entry was “soluble”.
